Key:
[1] = tested on: His-tagged recombinant E1 enzyme; assay: Influence of metal ions / reducing agent on dihydrodaidzein synthesis activity of E1 enzyme; assay type: biochemical, Lactococcus 20-92 strain; conditions: for influence of metal ions on the conversion activity from daidzein to dihydrodaidzein: 100 μl of 100 mM metal ion solution in 1000 μl, 37° C., 2 hours, HPLC (FIG. 26); for activation of E1 enzyme (dihydrodaidzein synthesizing enzyme activity): general statement in the description
Protocol: Using the His-tagged recombinant E1 enzyme ([…]) expressed in Escherichia coli, purified by Ni-Sepharose, as an enzyme source, the influence of metal ions on the conversion activity from daidzein to dihydrodaidzein was examined. Various metals (MnCl2.2H2O, FeSO4.7H2O, CaCl2.2H2O, Zn(CH3C00)2.2H2O, CoSO4.7H2O, MgSO4.7H2O, NiSO4.6H2O) were dissolved in distilled water to obtain a concentration of 100 mM. Using the metal ion solution, an enzyme reaction mixture of the composition below was prepared, and was reacted at 37° C. for 2 hours to measure the activity. [table] After incubation, 3 mL of ethyl acetate was added to the obtained enzyme reaction mixture for extraction. After drying, the extract was dissolved by the mobile phase (eluent). The dissolved product was analyzed by HPLC to measure the contents of daidzein and dihydrodaidzein in the enzyme reaction mixture.

[2] = tested on: disrupted cell material of Lactococcus 20-92 strain; assay: Enzyme reaction with disrupted cell material of Lactococcus 20-92 strain as enzyme source (Example B1); assay type: biochemical; conditions: 10 μg/mL substrate; 2 mM NADPH, 2 mM NADH; 37° C., 2 hours; HPLC (FIG. 9)
Protocol: The Lactococcus 20-92 strain cells preserved at −80° C. were quickly thawed. The cells were suspended by tapping, and centrifuged at 4° C. (8,000 rpm×5 min) using a centrifuge VC-960 (Taitec). After removing the supernatant, 0.1 M potassium phosphate buffer/1 mM PMSF (phenylmethanesulfonyl fluoride)/2 mM DTT (dithiothreitol)/5 mM sodium hydrosulfite (pH 7.0) were added to obtain a cell suspension. The cell suspension was placed in a 2 ml tube prepared to include zirconia-silica beads (about 0.8 mL, 0.1 mm, 1 lb; Wakenyaku Co., Ltd.), and the tube was charged with 0.1 M potassium phosphate solution/1 mM PMSF/2 mM DTT/5 mM sodium hydrosulfite (pH 7.0) to fill the tube almost completely. For disruption, the tube was closed and kept on ice, where a cycle of 6,500 rpm×20 sec centrifugation and ice-cooling was repeated four times using FastPrep®-FP100A (Thermo Electron Corporation). The resulting disrupted cell material was used as an enzyme source in an enzyme reaction.
A 1 mL enzyme reaction mixture of the composition below, containing 0.1 ml of the disrupted cell material obtained in (1) was prepared, and the mixture was incubated at 37° C. for 2 hours. After incubation, 3 mL of ethyl acetate was added to the resulting enzyme reaction product for extraction. The product was dried to prepare a sample for HPLC analysis. […]

dihydrodaidzein = assay: Enzyme property of E2 enzyme (tetrahydrodaidzein synthesis using dihydrodaidzein as a substrate); assay type: biochemical
Protocol: Regarding polypeptides (Bb) and (Bc), the activity to synthesize tetrahydrodaidzein using dihydrodaidzein as a substrate can be confirmed as follows. First, a polypeptide of interest is added to a substrate solution of the composition below at a concentration of 0.001 mg/mL. The solution is then incubated at 37° C. for 2 hours to check for the presence or absence of tetrahydrodaidzein in the solution. The presence of tetrahydrodaidzein in the solution after incubation is used as an indicator of the polypeptide's activity to synthesize tetrahydrodaidzein using dihydrodaidzein as a substrate. Since E2 polypeptide has an enzyme activity to synthesize tetrahydrodaidzein using dihydrodaidzein as a substrate, E2 polypeptide is also referred to as E2 enzyme. […] The optimal temperature of E2 enzyme is in the vicinity of 37° C., and the optimal pH is 4.5.

daidzein = assay: Enzyme property of E1 enzyme (dihydrodaidzein synthesis using daidzein as a substrate); assay type: biochemical
Protocol: Regarding polypeptides (Ab) and (Ac), the activity to synthesize dihydrodaidzein using daidzein as a substrate can be confirmed as follows. First, a polypeptide of interest is added to a substrate solution of the composition below at a concentration of 0.001 mg/mL. The solution is then incubated at 37° C. for 2 hours to check for the presence or absence of dihydrodaidzein in the solution. The presence of dihydrodaidzein in the solution after incubation is used as an indicator of the polypeptide's activity to synthesize dihydrodaidzein using daidzein as a substrate.
Since E1 polypeptide has an enzyme activity to synthesize dihydrodaidzein using daidzein as a substrate, E1 polypeptide is also referred to as E1 enzyme. E1 enzyme is activated by the presence of a reducing agent such as Na2S2O4 and metal ions such as Fe^2+ and Mn^2+. […] The optimal temperature of E1 enzyme is in the vicinity of 30° C., and the optimal pH is 7.0.

In the case of `[Mn+2]` [Mn^2+], the “influence of metal ions on the conversion activity from daidzein to dihydrodaidzein” value [1] is reported as “stimulated the activity” and the “activation of E1 enzyme (dihydrodaidzein synthesizing enzyme activity)” value (“activation of E1 enzyme” below) [1] is reported as “activated”.

In the case of `O=S([O-])S(=O)[O-].[Na+].[Na+]` [Na2S2O4], the “activation of E1 enzyme” value [1] is reported as “activated”.

For `O=C1c2ccc(O)cc2OCC1c1ccc(O)cc1` (centres unmarked) [dihydrodaidzein], the “enzyme reaction product from dihydrodaidzein as a substrate” value [2] was “production of trans-tetrahydrodaidzein”.

In the case of `[Fe+2]` [Fe^2+], the “influence of metal ions on the conversion activity from daidzein to dihydrodaidzein” value [1] is reported as “stimulated the activity” and the “activation of E1 enzyme” value [1] is reported as “activated”.

B1: E2 enzyme: polypeptide (SEQ ID NO: 7) having an activity to synthesize tetrahydrodaidzein using dihydrodaidzein as a substrate (protein, listed as Lactococcus garvieae)
chain: MAQEVKVPKMPGAPVFGKWISPEESVGQRLKGKKILLTGTTKGVGRVTQELLCAHGAFVCGSGRTPGVAASVADELKAKGYQAAGMDVDLSDYDAVKKWVEECAELMGGIDVVINNASHPGMAPFGEMTPEIWNYGIKNELDLVYNVCNCAWPYLQKADGASIIITSSTVALQGSNSPQACHAACKGACLSLARQLAAEGGPFGIRCNSVTPGLVWTEAMSNIPKEMASGLVAAQTTQQAVDPMDIAYAYLFLASDESRQITAANIPVDGGCAGAVTGGMQGEIEV
B1 was tested, and the “coenzyme requirement of E2 enzyme” value (dihydrodaidzein) was “requires NADPH or NADH as a coenzyme”, the “optimal pH of E2 enzyme” value (dihydrodaidzein) was 4.5 and the “optimal temperature of E2 enzyme” value (dihydrodaidzein) was about 37 °C. The “reverse reaction of E2 enzyme” value (dihydrodaidzein) was “synthesize dihydrodaidzein from tetrahydrodaidzein”.

B2: E1 enzyme: polypeptide (SEQ ID NO: 1) having an activity to synthesize dihydrodaidzein using daidzein as a substrate (protein, listed as Lactococcus garvieae)
chain: MKNKFYPKTFERGYIGNLEVENRAIRMPMGTELGNPDGSPSWASLKAYAEAADGGTGIVFMDNAGVTQFHHVGLSLASDNYIGPMSVLAKTIKQHGAIPGLQIVHPGRDAAFVRGDDLISSSRIQWEPWYENGGAVPRELTIEEIHDFVGYFGDCALRAQTAGFEIVDVHAACGVLLSNFLSPRNNTRNDMYGGSLHNRARFLLEVIRDIKKKCPNLPLAIRLSGIDFEPDGITIEETCEVAKMCEAAGADAINITWGSHAEVINAAGLLSKHGANHVEAAKMIKDAVSIPTMLCGGIYSPEIGEKLLEDGVCDFIGIGKPALADPMWAKKAAEGRPEDIRPCIGCGVGCHDRGMLSGGVVQCAVNAALYKFDEPVYPQAEVPKKVIIIGAGPAGCEAAITAKKCGHDVTIYEKRKIGGVLKEATVSDSKEDLGRLITYYETQLKKEGIEVIYEEATADTVVAGGFDVAIVACGATVRNLNIDGQDDPSVVYAMDFLDNDCKSDADRVVVVGGGIVGAETALILAEERGKDVTITTRSPEFFVSGVMGIAYMVRLGMAGVTIKPSTQLVAVKDGKPMFAGPRGLETLDVDQTIISSGFVPTFNQFRAQIEEKCEDVRVIGIGDCKASRMVMDAVHEGYIAGCNL
For B2, the “coenzyme requirement of E1 enzyme” value (daidzein) was “requires NADPH or NADH as a coenzyme”, the “optimal pH of E1 enzyme” value (daidzein) was 7.0 and the “optimal temperature of E1 enzyme” value (daidzein) was about 30 °C. The “reverse reaction of E1 enzyme” value (daidzein) was “synthesize daidzein from dihydrodaidzein”.

From patent publication US8669088B2, “Enzyme associated with equol synthesis” (Otsuka Pharmaceutical Co., Ltd., priority 2007, dated 2014)
